{
  "source": "patent EP1657250A1",
  "about": "“HLA-A *01-binding T-cell epitope of WT1” (Charité - Universitätsmedizin Berlin, priority 2004, dated 2006)",
  "key": {"constitutive proteasome": {"target": "T1, constitutive proteasome (Homo sapiens, UniProt P28072+P28074+Q99436)", "T1 construct": "Proteasomes were isolated from the EBV-transformed B-cell line; endogenous in cells; host or cells: LCL-721.174 (EBV-transformed B-cell line)", "test": "In vitro proteasome digestion of the precursor peptide, constitutive proteasome", "format": "biochemical", "details": "6 h incubation; Edman sequencing and MALDI-TOF", "procedure": "(§1) Purification of 20S proteasomes, in vitro degradation of WT1.314-336 (SEQ ID NO: 6), and separation and analysis of cleavage products were performed as described (16). 10 nmol (27.6 µg) of WT1.314-336 were incubated for 6 h with 2 µg immunoproteasome or with 2 µg of constitutive proteasome, respectively, in digestion buffer (20 mM Tris-HCI; pH 7.6; 10 mM NaCl; 10 mM KCI; 2 mM MgCl2; 0.5 mM DTT) and the reaction stopped by freezing the reaction mixture at -80°C.\n(§2) One crucial prerequisite for a peptide to be presented as a T-cell epitope is its proper excision from the protein. We analyzed in vitro digestion of the […] WT1-derived peptide 314-336 (SEQ ID NO: 6) encompassing the WT1.317-327 epitope […] (SEQ ID NO: 1) by constitutive as well as immunoproteasomes (Fig. 2). Proteasomes were isolated from the EBV-transformed B-cell line LCL-721.174 (constitutive proteasome) and the parental cell line LCL-721 (immunoproteasome, ref. 16) and were used for digestion with a 6-hour incubation period. A combination of Edman sequencing and MALDI-TOF mass spectrometry was subsequently performed to determine the identity and quantity of peptides generated after proteasome digestion. The amount of fragments detected is indicated."}, "immunoproteasome": {"target": "T2, immunoproteasome (Homo sapiens, UniProt P28062+P28065+P40306)", "T2 construct": "Proteasomes were isolated from the EBV-transformed B-cell line; endogenous in cells; host or cells: LCL-721 (EBV-transformed B-cell line)", "test": "In vitro proteasome digestion of the precursor peptide, immunoproteasome", "format": "biochemical", "details": "6 h incubation; Edman sequencing and MALDI-TOF", "procedure": "as §1, §2"}},
  "note": "“Also recorded” adds a separate entry of the source.",
  "data": [
    {"substance": "WT1.314-336: WT1-derived precursor peptide 314-336 encompassing the WT1.317-327 epitope (ASETSEKRPFMCAYPGCNKRYFK)", "values": [
      {"measurement": "cleavage site C-terminal to Tyr-327 (fragments detected)", "setting": "constitutive proteasome", "result": "fragment 328-336 was efficiently generated"},
      {"measurement": "processing of the N-terminus Thr-317", "setting": "constitutive proteasome", "result": "a fragment was found sharing the N-terminus Thr-317 (T)"},
      {"measurement": "generation of C-terminal residue Tyr-327 (fragments detected)", "setting": "immunoproteasome", "result": "generated as the major fragment (314-327); also recorded: complementary fragment 328-336 represented the other major fragment"},
      {"measurement": "processing of the N-terminus", "setting": "immunoproteasome", "result": "No processing of the N-terminus was observed"}
    ]}
  ]
}
